The values that follow come from patent publication US20030175243A1.

This assay has as its target natural cellular receptor for adenoviruses, on human 293 cells. Put plainly: cell-based or functional assay.

“Ad5 fiber CD5 to CD3 (replacement of the CD loop of an Ad5 with its equivalent from an Ad3)” displayed a propagation of the corresponding virus in 293 cells (multiplication factor) (multiplication factor) of less than 1. With “Ad5 fiber with the mutation A455F (from UniProt P11818 1-581)”, the propagation of the corresponding virus in 293 cells (multiplication factor) (multiplication factor) is less than 1. Still for that read-out and setting: the same measure for “Ad5 fiber with the mutation G443D (from UniProt P11818 1-581)”: less than 1. Substance “Ad5 fiber with the mutation I459A (from UniProt P11818 1-581)” gave a propagation of the corresponding virus in 293 cells (multiplication factor) (multiplication factor) of less than 1. On to “Ad5 fiber with the mutation L457K (from UniProt P11818 1-581)”, for which the propagation of the corresponding virus in 293 cells (multiplication factor) (multiplication factor) was less than 1.

For the substance “Ad5 fiber ΔCD+D (deletion of the CD loop and of the D sheet) (from UniProt P11818 1-581)”, the propagation of the corresponding virus in 293 cells (multiplication factor) (multiplication factor) was less than 1. Regarding “Ad5 fiber ΔD (deletion of the D sheet of the Ad5 fiber) (from UniProt P11818 1-581)”, the propagation of the corresponding virus in 293 cells (multiplication factor) (multiplication factor) is less than 1. “GRP fiber (Ad5 fiber with a 12-residue spacer arm and the GRP peptide at its C-terminal end), carried by AdTG4628 (from UniProt P11818 1-581)” showed a multiplication factor of the virus in 293 cells (7 days post-infection) (multiplication factor) of 1000.
